# “Also recorded” adds a separate entry of the source. No end group written: not given here. Me2 = dimethyl-lysine (dimethyl-epsilon-NH2-L-lysine)
# Biological target: T1, biotinidase (Homo sapiens, UniProt P43251)
# T1 construct: 60 μL of human plasma; from tissue; host or cells: human plasma
# T1 sequence (P43251 22-523): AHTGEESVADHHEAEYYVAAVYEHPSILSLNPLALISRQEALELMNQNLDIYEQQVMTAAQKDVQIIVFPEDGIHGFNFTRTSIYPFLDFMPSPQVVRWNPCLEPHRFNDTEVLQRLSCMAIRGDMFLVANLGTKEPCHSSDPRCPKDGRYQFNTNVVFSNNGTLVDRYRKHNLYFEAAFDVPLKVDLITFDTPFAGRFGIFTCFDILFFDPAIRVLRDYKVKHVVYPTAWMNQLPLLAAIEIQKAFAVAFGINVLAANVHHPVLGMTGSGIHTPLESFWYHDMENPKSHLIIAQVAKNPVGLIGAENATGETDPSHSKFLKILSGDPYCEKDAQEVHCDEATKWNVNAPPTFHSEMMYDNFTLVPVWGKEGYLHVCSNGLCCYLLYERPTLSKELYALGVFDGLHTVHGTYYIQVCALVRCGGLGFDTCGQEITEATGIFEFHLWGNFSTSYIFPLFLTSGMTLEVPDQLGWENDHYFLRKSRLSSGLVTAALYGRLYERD
# Assay: Enzymatic biotinylation of synthetic histone H3 peptides by biotinidase
# Type: biochemical
# Settings: biotinidase and biocytin, 45 min
row,Molecule,"enzymatic biotinylation by biotinidase, peptide-bound biotin probed with streptavidin-peroxidase"
1,NCCC[C@H](N)C(=O)O [ornithine],not biotinylated
2,"K4,9A1-9: histone H3 amino acids 1 to 9, K4 and K9 substituted by alanine (ARTAQTARA)",no binding of biotin was detectable
3,"K4A1-9: histone H3 amino acids 1 to 9, K4 substituted with alanine (ARTAQTARK) [Peptide K4A1-9]",barely detectable
4,"K9,14A9-16: histone H3 amino acids 9 to 16, K9 and K14 substituted with alanine (ASTGGAAP)",no binding of biotin was detectable
5,"K9A9-16: histone H3 amino acids 9 to 16, K9 substituted with alanine (ASTGGKAP) [Peptide K9A9-16]",poor target for biotinylation
6,"K14A9-16: histone H3 amino acids 9 to 16, K14 substituted with alanine (KSTGGAAP) [Peptide K14A9-16]",heavily biotinylated
7,"K18,23A16-23: histone H3 amino acids 16 to 23, K18 and K23 substituted with alanine (PRAQLATA)",no binding of biotin was detectable
8,"K18,23A18-25: histone H3 amino acids 18-25, K18 and K23 substituted with alanine (AQLATAAA)",No biotinylation was detected

# Biological target: T1, biotinidase
# Assay: Enzymatic biotinylation of synthetic histone H2A and H2A.X peptides by biotinidase
# Type: biochemical
# Settings: human plasma as source of biotinidase, 75 μmol/L biocytin, pH 8.0, 37° C., up to 45 minutes
# Excerpt: In Examples described above, the inventors developed a procedure to identify amino acid residues in histones that are targets for biotinylation. […] Amino acid substitutions (e.g., lysine-to-alanine substitutions) in synthetic peptides are used to corroborate identification of biotinylation sites. In addition, amino acid modifications (e.g., acetylation of lysines) in peptides can be used to investigate the cross-talk between biotinylation of histones and other known modifications of histones.
# Peptides from both the N- and C-terminal regions of histone H2A and H2A.X were included in the analysis of biotinylation sites. […] Reactions were quenched by adding an equal volume of Tricine gel loading buffer (Invitrogen, Carlsbad, Calif.).
row,Molecule,"enzymatic biotinylation by biotinidase, peptide-bound biotin probed with streptavidin peroxidase"
1,"AKAKSRSSR [Peptide T16S12-20, N-terminus of histone H2A.X, amino acids 12-20]",good targets for biotinylation; also recorded: biotinylated only moderately
2,"AKAKTRSSR [Peptide N12-20, histone H2A amino acids 12-20]",not a good target; also recorded: poor target for biotinylation
3,"ATVGPKAPSG [Peptide C122-131, C-terminus of histone H2A.X, amino acids 122-131]",not biotinylated
4,"GGKARAKA [Peptide N7-14, histone H2A amino acids 7-14]",good target for biotinylation; also recorded: heavily biotinylated; also recorded: moderate target for biotinylation
5,"GKKATQASQEY [Peptide C132-142, C-terminus of histone H2A.X, amino acids 132-142]",not biotinylated
6,"K5,9A1-9: histone H2A N1-9, both lysine residues substituted with alanines (SGRGAQGGA)",no biotinylation was detectable
7,"K5A1-9: histone H2A N1-9, K5 substituted with alanine (SGRGAQGGK) [Peptide K5A1-9]",did not decrease biotinylation
8,"K13,15A12-20: histone H2A N12-20, both lysine residues substituted with alanine (AAAATRSSR)",no biotinylation was detectable
9,"K13,15A,T16S12-20: T16S12-20 with both lysine residues substituted with alanine (AAAASRSSR)",no biotinylation was detectable
10,"K13A12-20: histone H2A N12-20, K13 substituted with alanine (AAAKTRSSR) [Peptide K13A12-20]",did not render K15 a good target
11,"K13A,T16S12-20: T16S12-20 with K13 substituted with alanine (AAAKSRSSR)",No biotinylation was detectable
12,"K15A12-20: histone H2A N12-20, K15 substituted with alanine (AKAATRSSR) [Peptide K15A12-20]",good target for biotinylation
13,"K15A,T16S12-20: T16S12-20 with K15 substituted with alanine (AKAASRSSR)",decreased moderately
14,"K125,127,129A122-129: C122-129 with all lysine residues substituted with alanine (SHHAAAGA)",no biotinylation was detectable
15,"K125,127A122-129: C122-129 with K125 and K127 substituted with alanine (SHHAAAGK)",decreased only moderately
16,"K125,129A122-129: C122-129 with K125 and K129 substituted with alanine (SHHAAKGA)",considerable decrease of biotinylation
17,"K127,129A122-129: C122-129 with K127 and K129 substituted with alanine (SHHAAAGA)",considerable decrease of biotinylation
18,"Q6T,K5A1-9: Q6T1-9 with K5 substituted with alanine (SGRGATGGK)",decreased biotinylation only moderately
19,"Q6T,K9A1-9: Q6T1-9 with K9 substituted with alanine (SGRGKTGGA)",substantially decreased biotinylation
20,SEQ ID NO:73: histone H2A N1-9 with acetylation of K5 (SGRGK(Ac)TGGK),moderate decrease
21,SEQ ID NO:74: histone H2A peptide containing acetylated K9 and free K5 (SGRGKTGGK(Ac)),not a target for biotinylation
22,SEQ ID NO:75: histone H2A N7-14 with dimethylation of K13 (GGKARAK(Me2)A),decreased the biotinylation of K9
23,SEQ ID NO:76: histone H2A N7-14 with acetylation of K13 (GGKARAK(Ac)A),decreased the biotinylation of K9
24,"SGRGKTGGK [Peptide Q6T1-9, N-terminus of histone H2A.X, amino acids 1-9]",good targets for biotinylation
25,"SHHKAKGK [Peptide C122-129, histone H2A amino acids 122-129]",good target for biotinylation; also recorded: good substrate for biotinylation
